Results from patent US20250205324A1, “ANTIGENIC PEPTIDES FOR PREVENTION AND TREATMENT OF CANCER” (ENTEROME S.A., priority 2022, published 2025).

Biological target: T1, HLA-A*0201 molecule expressed on human T2 cells (human)
T1 construct: surface HLA-A2 detected with anti-HLA-A2-PE (clone REA517); also called HLA-A2
Assay: T2 cell HLA-A*0201 binding assay, anti-HLA-A2-PE flow cytometry
Experimental: T2 cells (5·10⁴ cells per well) are incubated with decreasing concentrations of peptides from 100 μM to 0.1 μM (4 points: 100 μM, 10 μM, 1 μM, 0.1 μM) in serum-free medium (TexMacs) supplemented with 100 ng/μl of 2 Microglobulin at 37° C. for 16 hours. Cells are then washed two times and marked with the anti-HLA-A2 antibody coupled to PE (clone REA517, Miltenyi).
For each peptide concentration, the geometric mean of the labelling associated with the peptide of interest is subtracted from background noise and reported as a percentage of the geometric mean of the HLA-A*0202 labelling obtained for the reference peptide HIV pol 589-597 at a concentration of 100 μM.

| Binder | concentration of peptide that induces 20% of HLA-A2 expression [µM] | in vitro binding affinity (relative affinity, normalized against HIV-pol) | mean relative fluorescence intensity at 0.1 µM peptide | mean relative fluorescence intensity at 1 µM peptide | mean relative fluorescence intensity at 10 µM peptide | mean relative fluorescence intensity at 100 µM peptide |
| --- | --- | --- | --- | --- | --- | --- |
| AINPELLQL (also called ENT207-H) [KIF2C-H1] | 22.6 | 31.1 ratio to HIV pol reference peptide | 0 % of HIV pol reference peptide | 0.4 % of HIV pol reference peptide | 9.5 % of HIV pol reference peptide | 64.9 % of HIV pol reference peptide |
| ALYSEILTV (also called ENT169_B1; ENT_169-B1) [ANKRD30A-B1] | 0.05 | 0.04 ratio to HIV pol reference peptide | 33.3 % of HIV pol reference peptide | 77.2 % of HIV pol reference peptide | 93.7 % of HIV pol reference peptide | 88.2 % of HIV pol reference peptide |
| IVWSDVTYV (also called ENT187_B1) [MMP11-B1] | 0.08 | 0.07 ratio to HIV pol reference peptide | 19.8 % of HIV pol reference peptide | 73.3 % of HIV pol reference peptide | 97.1 % of HIV pol reference peptide | 80.2 % of HIV pol reference peptide |
| RLQQELMTL [UBE2C-H3] | 1.06 | 1.1 ratio to HIV pol reference peptide | 1.3 % of HIV pol reference peptide | 12.3 % of HIV pol reference peptide | 71.5 % of HIV pol reference peptide | 82.4 % of HIV pol reference peptide |
| YLYDVRTAL (also called ENT168_B2) [UBE2C-B11] | 0.87 | 0.7 ratio to HIV pol reference peptide | 6.6 % of HIV pol reference peptide | 22.2 % of HIV pol reference peptide | 68.4 % of HIV pol reference peptide | 87.5 % of HIV pol reference peptide |
| YLQQELMNL (also called ENT178_B1) [UBE2C-B3] | 0.14 |  |  |  |  |  |
| SLLSIQSYV (also called ENT172_B1) [UBE2C-B2] | 0.22 | 0.2 ratio to HIV pol reference peptide | 14.2 % of HIV pol reference peptide | 52 % of HIV pol reference peptide | 92 % of HIV pol reference peptide |  |
| FLYDVRTYL (also called ENT168_B1; ENT_168-B1) [UBE2C-B1] |  | 3.1 ratio to HIV pol reference peptide |  |  |  |  |
| VLNPELLML (also called ENT207_B4) [KIF2C-B13] | 0.189 | 0.8 ratio to HIV pol reference peptide | 10.5 % of HIV pol reference peptide | 42.1 % of HIV pol reference peptide | 45.3 % of HIV pol reference peptide | 50.3 % of HIV pol reference peptide |
| ALYDVRTIL (also called ENT168-H) [UBE2C-H1] | 15 | 8.8 ratio to HIV pol reference peptide | 3.8 % of HIV pol reference peptide | -0.2 % of HIV pol reference peptide | 6.8 % of HIV pol reference peptide | 134 % of HIV pol reference peptide |
| ILLSIQSLL [UBE2C-H2] | 3.27 | 3.5 ratio to HIV pol reference peptide | 2.1 % of HIV pol reference peptide | 8.5 % of HIV pol reference peptide | 32.7 % of HIV pol reference peptide |  |
| ALNPELLAL (also called ENT207_B1; ENT_207-B1) [KIF2C-B1] |  | 1.6 ratio to HIV pol reference peptide |  |  |  |  |
| SLPDRILTV (also called ENT204_B1; ENT_204-B1) [CDC20-B1] |  | 0.6 ratio to HIV pol reference peptide |  |  |  |  |
| QMNPELLTL (also called ENT207_B2) [KIF2C-B11] |  | 3.9 ratio to HIV pol reference peptide |  |  |  |  |
| VMNPELLLL (also called ENT207_B3) [KIF2C-B12] | 0.258 | 1.1 ratio to HIV pol reference peptide | 9.8 % of HIV pol reference peptide | 41.4 % of HIV pol reference peptide | 84.7 % of HIV pol reference peptide | 67.7 % of HIV pol reference peptide |
| ALYDVRTILL (also called UBEC2-H11; ENT168-HL) [UBE2C-H11] | 14.9 | 8.7 ratio to HIV pol reference peptide | 4.2 % of HIV pol reference peptide | -2.3 % of HIV pol reference peptide | 8.9 % of HIV pol reference peptide | 135 % of HIV pol reference peptide |
| LILDTVHSL (also called ENT174_B1) [ANKRD30A-B2] | 1.13 | 1.3 ratio to HIV pol reference peptide | 1.7 % of HIV pol reference peptide | 12.4 % of HIV pol reference peptide | 72 % of HIV pol reference peptide | 90.8 % of HIV pol reference peptide |
| ALIFGQLLL (also called ENT205_B1; ENT_205-B1) [TOP2A-B2] | 1.79 | 2.9 ratio to HIV pol reference peptide | 3.4 % of HIV pol reference peptide | 5.5 % of HIV pol reference peptide | 73.6 % of HIV pol reference peptide | 146 % of HIV pol reference peptide |
| ALIFGQLLT (also called ENT205-H) [TOP2A-H2] |  |  | 5.1 % of HIV pol reference peptide | 0.3 % of HIV pol reference peptide | 3.2 % of HIV pol reference peptide | 0 % of HIV pol reference peptide |
| KVWSDVTPL [MMP11-H1] | 0.65 | 0.6 ratio to HIV pol reference peptide |  | 24.9 % of HIV pol reference peptide | 72.7 % of HIV pol reference peptide | 82.5 % of HIV pol reference peptide |
| KILDTVHSC [ANKRD30A-H2] | 25.3 | 29.9 ratio to HIV pol reference peptide | 1.2 % of HIV pol reference peptide | 1.8 % of HIV pol reference peptide | 8.7 % of HIV pol reference peptide | 52.3 % of HIV pol reference peptide |
| TLDQKLFMV (also called ENT180_B1) [ANKRD30A-B3] | 0.14 | 0.2 ratio to HIV pol reference peptide | 18.8 % of HIV pol reference peptide | 67.5 % of HIV pol reference peptide | 120 % of HIV pol reference peptide | 112 % of HIV pol reference peptide |
| SLPDRILDA (also called ENT204-H) [CDC20-H1] |  | 6.3 ratio to HIV pol reference peptide |  |  |  |  |
| AQIGIVAVV [OR51E2-H1] | 5.68 | 6.2 ratio to HIV pol reference peptide | 0 % of HIV pol reference peptide | 4 % of HIV pol reference peptide | 32 % of HIV pol reference peptide |  |
| AVYSEILSV (also called ENT169-H) [ANKRD30A-H1] | 0.65 |  |  |  |  |  |
| AVIGIVAAV (also called ENT190_B1) [OR51E2-B1] | 0.7 | 0.8 ratio to HIV pol reference peptide | 3.5 % of HIV pol reference peptide | 25.4 % of HIV pol reference peptide | 59.3 % of HIV pol reference peptide |  |
